The series can be described thus: yeast display, Sf9 membrane polyspecificity reagent, FACS + sequencing; frameworks hold sequencing errors. The procedure, abridged:
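Genes from sorted yeast were amplified by colony PCR, read by MiSeq 2 × 250 sequencing and filtered on CDR length. These cells carried a synthetic nanobody library in Saccharomyces cerevisiae BJ5465 and were sorted by FACS into low and high (top ~1%) gates on anti-HA and streptavidin fluorescence. Polyreactivity is labelled according to the gate of origin.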
Turning to “QDQLVHSGGGLVQSGGSLRISCAASGFTFYLYGMGRYRQAPGKERDLDAAIDSTGSTNYADSVKGRFTISRDNAKNTVYLQMNSLKPEDTAVYYCAADFYLYYFRSPYDYWGQGTQVTVSS”, the “polyreactivity (PSR sort gate)” value was “high polyreactivity”.

Turning to “QDQLVQSAGGLVQAGGSLRLSCAASGRTIRAYAMGWYRQAPGKEREFVAAITWGDGSTYYADSVNGRFTISRDNAKNTVYLQMKSLKPEDTAVYYCATVQSCRVRTYDYWGQGTQVSVSS”, the “polyreactivity (PSR sort gate)” value is recorded as “high polyreactivity”.

As for “QDQLVQSGGGLVQAGGSLRLSCAASGFTFYYYAMGWYRQAPGKETELVAGISKSGGITYYADSVKGRFTISRDNAKNTVYLQMNSLKPEDTAVYYCAAAAWYQFFLYRYTYEYWGQGTQVTVSS”, the “polyreactivity (PSR sort gate)” value is on record as “low polyreactivity”.

Turning to “QDQLVVSGGGLVQAGGSLRLSCAASGFIFYRYSMGWYSQEPGKEREVVASITRSGGSTYYAASVKGRFTISRDKAKNTLYLPMNSLKPVETAVYYCATAIRYFVSYDYWGQGTEVTVSS”, the “polyreactivity (PSR sort gate)” value is listed as “high polyreactivity”.

Regarding “QDQRVDSGGGLVQAGGSLRLSCAASGSNFQWNAMGSYRHATGKERELVAAISGTGGNTYYADSVKGRFTISRDNAKNTVYLQMNSLKREDTAVYYCNTDYGEYYSWYLQWWYIPFDYWGQGTQVTVSS”, the “polyreactivity (PSR sort gate)” value was “low polyreactivity”.

For “QDQRVESGGGLDQAGGSLRLSCAASGSIFLVYAMGWYRQAPGKEMEFVAAITWSGGSTYYADSVKGRFTISRDIAKNTVYLQMNSLKPEDTAVYYCAVEIWIPTWYGLSGEYDYWGHGTQVTVSS”, the “polyreactivity (PSR sort gate)” value was “low polyreactivity”.

For the sequence “QDQRVESGGGLVQAGGSLRLSCAASVRTVNFNVMGWYSQARGKERELVAAISKSTGSTFYADSVKGRFTMSRDNAKNTGYLQKNSLKPEDTAVYYCIAVRCYGSGRGYGYCGQGTQVTVSS”, the “polyreactivity (PSR sort gate)” value is recorded as “high polyreactivity”.

As to “QEQLLDSGGGLVQAGGSLRLSCAASGYFSSHILSWYRQGPGKVREFVDTITDGGTTDYADSVKGRFTISRDNAKNTVYLQMNSLNPQDTAVYYCAAVATYSYHFGYWGHGTQVTVSS”, the “polyreactivity (PSR sort gate)” value was “high polyreactivity”.

For “QEQLLESGGALVQAGGSLRLSCMASGSILGDRMSWYRQAPGKEHELVATIYDGGITYYADSMKGRFTISRDNAKNTVYLQMNSLRPEDTAVYYCGASFEGYRYHVYCGQGTQVTVSS”, the “polyreactivity (PSR sort gate)” value is given as “low polyreactivity”.

For “QEQLQESGGGLVQACGSLRLSCAASGYIFSHQYMGWYRQAPGKERELVASISPGATTNYADSVKGRFTISRDNAKNTVYLQMNSLKPEDTAVYYFAVYKILDRRLSYWGQGTQVTVSC”, the “polyreactivity (PSR sort gate)” value is on record as “high polyreactivity”.

Take “QEQLQESGGGLVQAGGSLRLSCAASGSISQAWYMGWYRQAPGKERELVAAINVGAITYYADSVKGRFSISRDNAKNTVYLPMNSLTPEDTGVYYCAVDQYSEAYYDYWGQGTQATVSS”: the “polyreactivity (PSR sort gate)” value was “high polyreactivity”.

For the sequence “QEQLQESGGGLVQAGGSLRLSCAASGTISYAGPMGWYRQAPGKEREFVAGIGVGSNTNYADSVKGRYTIIRDNAKNTVYLQMNSLKPEDTAVYYCAVGGYAPLGRPYWGQGTQVTVSS”, the “polyreactivity (PSR sort gate)” value is “low polyreactivity”.

“QEQLQESGGGLVQAGGSLYLSCAASGNIFEYYDMGWYRQGKERELVAGISYGTNTNYAVSVKGRFTISRDIAKNTVYLQMNSLKPEDTAVYYCARRIGHGSRPYWLETWLYPYDYWGQGTQVTVSS”: the “polyreactivity (PSR sort gate)” value is given as “low polyreactivity”.

Regarding “QEQLQESGGGLVQAGGTLRLSCSASGTISPLPAMGWYRQSPGKEREFVAGIDTGAITNYADSVKGRFTISRDNAKNTVYLQMNSLKPEDTAVYYCAVFPAAYDYYERYYTYWGQGTQVTVCS”, the “polyreactivity (PSR sort gate)” value is reported as “low polyreactivity”.

Turning to “QEQLQESGGGQVQAGGSLLLSCAASGNIIPSYYMGWYRQAPGKERELVAAITYGTSTNYADSVKGRFTISRDNAKNTVFLQMISLKPVDTAVYYCAVDFNYGDPLVHWGQGTQVTVSS”, the “polyreactivity (PSR sort gate)” value is “high polyreactivity”.

“QEQLQESGGGQVQAGGSLLLSCAASGNIIRYYYMGWYRQAPGKERELVAAITYGTSTNYADSVKGRFTISRDNAKNTVYLQMNSLKPEDTAVYYCAVVVNYGDPLDNWGQGTQVTVSS”: the “polyreactivity (PSR sort gate)” value was “high polyreactivity”.

“QEQLQETGGGLVQAGGSLRLICASSGSIFFVYGMGWSRQAPGKERELVAGINAGTNTNYADSVRGRFTISRDNAKYTVHLQMNSLKPEDTAVYYCAADGNGYQAHEYWGQGTQVTVSS”: the “polyreactivity (PSR sort gate)” value was “high polyreactivity”.

As to “QEQLVESGGGLVQAGGSLRLSCAASGNTFSYNAMGWYRQAPGKEREVVAAISSRGVRTYYADSVKGRFTISRDNAKNTVYLQMNSLKPEDTAVYYCAADLWDWAYDYWGQGTQVTVSS”, the “polyreactivity (PSR sort gate)” value was “high polyreactivity”.

For the sequence “QEQQQESGGGQLQAGGSLLLSCAASGNIIRYYYMGWYRQAPGKERELVAAITYGTSTNYADSVKGRFTISRDNAKYSVYLQMISLKPEDTAVYYCAVDVNYGDPLDNWGQGTQVTVSS”, the “polyreactivity (PSR sort gate)” value is “high polyreactivity”.

“QFHHVESGGGLVQAGGSLRLTCAATGIIILGNAKGWYRQAPGKERELVATITSGGTTNYADSVKGRFTISRDNAKNTVYLQMNSLIPEDTAVYYCNKRSYDQQEYEYDYWGQGTQVTVSS”: the “polyreactivity (PSR sort gate)” value is listed as “low polyreactivity”.

Take “QFHLVESGGGIVQAGGSLRLSCAASGFTFAYYAMGRNRQAPGKERELVAAISSGGRTYYADSVKGRFTISRDNAQNTVYLQLNSLKPEDTAVYYCKTVPYYDALTYPFDSWGQGTQVTVSS”: the “polyreactivity (PSR sort gate)” value is on record as “low polyreactivity”.

On to “QFHLVESGGGLVQAGGSLRLSCAASGRNLVRYAMGCYRQAPGKERELVAAISKSGGSTYYADSVKGRFTISRDNAKNTVYLQMNSLKPEDTAVYYSNALVRRRPGYIRYDYWGQGTQVTVSS”, for which the “polyreactivity (PSR sort gate)” value is listed as “low polyreactivity”.

Take “QFHLVESGGGLVQAGGSLRLSCAASGSIFNEYAMGWYRQAPGKERELVAAITNISGRKYYADSVKGRFTISRDNAKNTVYLQMNSLKPEDTAVYYCNARRTYTRPYIHSVYNYYYWGQGTEVTVSS”: the “polyreactivity (PSR sort gate)” value was “high polyreactivity”.

For “QFQLEESGGGLVQAGGSLRLSCAASGITFVDYAMGWYRQAPGKERELVAAITTGGSTNYADSVKGRFTISRDNAKNTVYLQMNSLKPEDTAVYYCNKRPVILYDYWGQGTQVTVSS”, the “polyreactivity (PSR sort gate)” value was “low polyreactivity”.

For “QFQLEESGGGLVQAGGSLRLSCAASGSTFWYNAMVWYIQATGKEMELVAAISSSGGSTYYADSVKGRFTISRDNAKYTVYLQMNSLKPEDSAVYYCNTRYVYTRGGTLKRDYLGQGTQVTVSS”, the “polyreactivity (PSR sort gate)” value is “high polyreactivity”.

On to “QFQLEYSGGGLVQAGGSLRLSFASSGSTLARNAMGWYRQATVKERELVPSINGRTTRTYYADSVKGRFTISRDNAKNTVYLQMNSLKPEDTAVYYCAADPPGYVYGKRYYWGQGTQVTVSS”, for which the “polyreactivity (PSR sort gate)” value is given as “high polyreactivity”.

Regarding “QFQLLESGGGLVQAGGSLRLSCAASGFISDVYAMGWYRQAPGKERELDAVITWRGSTYYADSVKGSFTISRDNAKNTVYLQMNSLKPEDTALYYCAAESQGDWAFDYWGQGTQVTVSS”, the “polyreactivity (PSR sort gate)” value is on record as “low polyreactivity”.

On to “QFQLVDSGGGLVQAGASLRLSCAASGFIFEWYTIGWSREAPGTAREFVARISSDGSTTYADSVKGRFTSSRDNAKNTVYLQMNSLKPEDTAVYYCADDVSYPGQKYIFDDWGQCTQVTVSS”, for which the “polyreactivity (PSR sort gate)” value is “low polyreactivity”.

“QFQLVDSGGGLVQAGGSLRLSCAASGRIFSTNAMGWYRLAPGKEWELDAAINWSTGSYVLRRSVKGRFTISRDNAKNTVYLQMNSLKTEDTAVYYCAARVTVVGDYYWGQGTQVTVSS”: the “polyreactivity (PSR sort gate)” value was “high polyreactivity”.

Turning to “QFQLVDSGGGLVQAGGSLRLSCAASGSTFYWYTMGWYREAPGKERELVATITSVGRTNYADSVKGRFTISRDNAKNTVYLEMNSLKPEDTAVYYCAASKARWPRGGSKYYDWGQGTQVTVSS”, the “polyreactivity (PSR sort gate)” value is given as “high polyreactivity”.

Regarding “QFQLVDSGGGLVQAGGSLRLSCAATGSTQPGYAMGWYRQAPGKERELVAAITSRGGTTYYADSVKGRFTISCDNAKNTVYLQMNSLKPEDTAVYYCAPYTSYASDYWGQGTQVTVSS”, the “polyreactivity (PSR sort gate)” value is listed as “high polyreactivity”.

“QFQLVESGGALVQAGGSLRLSCAASGLIFGRYAMGWYRQAPGNERELVAAISWRGGSTFYADSVKGRFTISRDNAKNTVYLQMNSLKPEDTAVYYCNARYYPARVRTYDHWGQGTQVTVSS”: the “polyreactivity (PSR sort gate)” value is “high polyreactivity”.

“QFQLVESGGGFVQAGGSLRLSCAASGRIFYRYAMGCYSQAPGKERELVAAITWRGGSTYYADSVKGRFTISRDNANNTVYLQMNSLKPEDTAVYYCAAAAYGVPWRSYLGVFKSHMDYWGQGTQVTVSS”: the “polyreactivity (PSR sort gate)” value is listed as “high polyreactivity”.

For the sequence “QFQLVESGGGLDQAGGSLRISCAPSGITFEYYTMGLYRQAPGKEIEFVAAITQGGGTTYYADSVKGRFTISRDNEKNTVYLQMNSLKPEDTAVYYCAAYVGYLLLYYPTYYYWGQGTQVTVSS”, the “polyreactivity (PSR sort gate)” value is given as “low polyreactivity”.

With “QFQLVESGGGLDQAGGSLRLICAASGITFDTNLMGWYRQAPGKERELVAAISARGGSTYYADSVKGRFTISRDNAKNTVYLQMNSLKPEDTAVYYCNAVIRPWQSYYYWGQGTQVTVSS”, the “polyreactivity (PSR sort gate)” value is listed as “high polyreactivity”.

For “QFQLVESGGGLVHAGGRLRLSCAASGITFVTYAMGWYRQAPGKERELVAAISRSGGRPYYADSVKGRFTISRDNATNTDYLQMNSLKPEDTAVYYCAAERKNKYDYWGQGTQVTVSS”, the “polyreactivity (PSR sort gate)” value was “high polyreactivity”.

As for “QFQLVESGGGLVHAGGSLRLICAASGRILYKYAMGWYRQAPGKERELVAAISGSGGRTYYADSVKGRFTISRDNAKNTVYLQMNSLKPEDTPVYYCAAVHPFRHVMYDYWGQGTQVTVSS”, the “polyreactivity (PSR sort gate)” value is reported as “low polyreactivity”.

Consider “QFQLVESGGGLVQAGGRLRLSCAASGRIFQLYTMGWYRQAPGKEREFVASISFITGRTYYADSVKGRFTISRDNAKKTVYLQMNSLKPEDTAVYYCNTRYDGGFDSWGQGTQVTVSS”, for which the “polyreactivity (PSR sort gate)” value is “high polyreactivity”.

Consider “QFQLVESGGGLVQAGGSIRLSCAASGSTFTIYAMGWYRQAPGKERELVAAISGTGGTKYADSVKGRFTISRDNAKNTVYLQMTSLKPEDTAVYYCAARYMLWDGDSWTEFDYWGQGTQVTVSS”, for which the “polyreactivity (PSR sort gate)” value is “low polyreactivity”.

As to “QFQLVESGGGLVQAGGSLRLRCAASGLIIKKYTMGWYRQAPGKEMELVASISKSGGSTYYADSVKGRFTISRDNAKNTVYLQMNSLKPEDTAVYYCNRVTHYIRFDYWGQGTQVTVSS”, the “polyreactivity (PSR sort gate)” value was “low polyreactivity”.

Regarding “QFQLVESGGGLVQAGGSLRLSCAASGFIFQEYAMGWYGQAPGKERELVAAITSGGSTNYADSVKGRFTISRDNAKNTVYLQMNSLKPEDTAVYYCNVDSPDYYYDYDYWGHGTQVTVSS”, the “polyreactivity (PSR sort gate)” value is on record as “low polyreactivity”.

For the origin of these results see the nanobody polyreactivity screen of Harvey et al. (2022).
